Patent publication US20030144483A1 (Bristol-Myers Squibb, published 2003)

B1: humanized NEWM VH/REI Vκ mAb (antibody, human IgG1, V domains shown)
VH: QVQLQESGPGLVRPSQTLSLTCTVSGFIFSDNYMYWVRQPPGRGLEWIGTISDGGSYTYYPDSVKGRVTMLRDTSKNQFSLRLSSVTAADTAVYYCARGYYRYEGAMDYWGQGSLVTVSS
VL: DIQLTQSPSSLSASVGDRVTITCKSSQSVLYSSNQKNYLAWYQQKPGKAPKLLIYWASTRESGVPSRFSGSGSGTDFTFTISSLQPEDIATYYCHQYLSSWTFGQGTKVEIK
notes: Human IgG1 and human kappa constant regions; also called NEWM/REI based antibody; NMVK/HuVK

Key:
[1] = biological target: human FcγRI on cells (monocytes, IFN-γ-treated neutrophils, U937 cells) (human) (UniProt P12314); test: flow cytometry, FITC antibody on monocytes, average of duplicates
human FcγRI on cells (monocytes, IFN-γ-treated neutrophils, U937 cells) (human), sequence (P12314 16-374): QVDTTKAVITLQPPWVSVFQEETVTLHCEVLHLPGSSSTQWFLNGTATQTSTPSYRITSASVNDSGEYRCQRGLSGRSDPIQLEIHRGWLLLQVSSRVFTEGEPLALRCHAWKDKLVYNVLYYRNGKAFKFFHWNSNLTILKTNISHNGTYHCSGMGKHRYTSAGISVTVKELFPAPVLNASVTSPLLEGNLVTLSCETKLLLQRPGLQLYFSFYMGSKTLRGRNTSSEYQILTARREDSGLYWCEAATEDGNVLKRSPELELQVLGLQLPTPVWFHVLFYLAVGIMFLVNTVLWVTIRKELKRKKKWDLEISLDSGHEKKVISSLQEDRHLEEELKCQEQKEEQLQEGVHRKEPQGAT

[2] = biological target: T1, soluble fusion protein consisting of the extracellular domain of human FcγRI and human IgM heavy chain … (human, UniProt P12314 16-292; P01871 106-453); test: ELISA on captured sFcγRI-µ, in excess human IgG1 lambda
T1 construct: From supernatant of transiently transfected COS cells, captured on plates with goat anti-human IgM; also called FcRI/IgM fusion protein; FcγRI/IgM heavy chain fusion protein
T1 sequence (P12314 other isoform, or with tags, fused parts or gaps): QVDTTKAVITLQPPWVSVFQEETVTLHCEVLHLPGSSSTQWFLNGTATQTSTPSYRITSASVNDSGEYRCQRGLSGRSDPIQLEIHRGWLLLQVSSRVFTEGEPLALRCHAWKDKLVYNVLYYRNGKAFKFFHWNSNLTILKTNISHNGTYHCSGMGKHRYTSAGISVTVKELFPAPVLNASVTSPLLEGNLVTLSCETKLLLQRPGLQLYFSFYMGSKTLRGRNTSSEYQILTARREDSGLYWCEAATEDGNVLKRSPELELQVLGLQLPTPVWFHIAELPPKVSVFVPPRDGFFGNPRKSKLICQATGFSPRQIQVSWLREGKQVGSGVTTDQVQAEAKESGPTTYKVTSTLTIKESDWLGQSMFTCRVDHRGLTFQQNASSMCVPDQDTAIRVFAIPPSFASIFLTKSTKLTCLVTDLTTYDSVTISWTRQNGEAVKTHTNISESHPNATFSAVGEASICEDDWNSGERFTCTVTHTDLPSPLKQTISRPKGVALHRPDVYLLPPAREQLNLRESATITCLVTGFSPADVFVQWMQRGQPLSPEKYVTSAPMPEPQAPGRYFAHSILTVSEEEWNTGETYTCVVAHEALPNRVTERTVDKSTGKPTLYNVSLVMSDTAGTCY
Method: The binding of the antibodies to antigen was measured by ELISA. Wells of a microtitre plate (Immunlon 1, Dynatech, Chantilly, Va.) were coated with 200 ng goat anti-human IgM antibodies (Sera-lab, Crawley Down, U.K.) in 100 μl 50 mM carbonate buffer pH 9.6 at 37° C. for at least one hour. Wells were emptied and washed once with PBST and blocked with 1% BSA in PBS at room temperature for thirty minutes. The wells were emptied and washed with PBST and Cos supernatant containing FcRI/IgM fusion protein was added and incubated for one hour at room temperature. Wells were then emptied and washed three times with PBST and test antibodies diluted in 1% BSA/PBS were added and incubated for one hour at room temperature. In addition, each well contained 2 μg human IgGI, lambda antibody (Sigma, Poole, U.K.) The wells were then emptied, washed three times with PBST and 40 ng peroxidase goat anti-human kappa constant region antibodies (Sera-Lab, Crawley Down, U.K.) in 100 μl 1% BSA/PBS added to each well. After incubation for one hour at room temperature, the wells were emptied, washed three time with PBST and 10 μl HPD substrate buffer was added.
The wells of a microtiter plate were coated with goat anti-human IgM antibodies (Sera-Lab, Crawley Down, U.K.) in 50 mM bicarbonate buffer, pH 9.6. […]

Row | Molecule | antibody sites per cell (monocytes) (antibody sites per cell) [1] | fold lower affinity than the chimeric mAb [2] [fold]
1 | humanized mAb 22, KOL VH/REI Vκ mAb, designated H22 (antibody) | 10500 | –
2 | B1 | – | ~5
